One block for each molecule: values may come before it.
How the values were obtained:
[1] = biological target: recombinant human pancreatic triglyceride lipase (human) (UniProt P16233); test: co-sedimentation
[2] = biological target: T1, recombinant human pancreatic triglyceride lipase (human, UniProt P16233 17-465); test: co-sedimentation
T1 sequence: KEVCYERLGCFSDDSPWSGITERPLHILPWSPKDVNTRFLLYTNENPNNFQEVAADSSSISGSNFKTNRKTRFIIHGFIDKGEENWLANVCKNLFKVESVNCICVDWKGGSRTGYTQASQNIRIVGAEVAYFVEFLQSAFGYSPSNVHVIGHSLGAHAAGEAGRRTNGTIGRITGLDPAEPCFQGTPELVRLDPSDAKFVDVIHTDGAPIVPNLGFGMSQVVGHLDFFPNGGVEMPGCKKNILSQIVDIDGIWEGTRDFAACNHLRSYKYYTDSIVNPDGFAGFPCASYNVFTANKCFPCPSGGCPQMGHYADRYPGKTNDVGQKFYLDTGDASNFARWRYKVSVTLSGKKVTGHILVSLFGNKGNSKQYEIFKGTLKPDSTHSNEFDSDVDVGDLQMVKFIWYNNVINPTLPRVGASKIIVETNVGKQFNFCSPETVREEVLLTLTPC

- apparent Kd (colipase at half-maximal absorption of PTL to tributyrin emulsion) [1]: 36 nM
Molecule: I79A human colipase (natural protein)

- apparent Kd (colipase at half-maximal absorption of PTL to tributyrin emulsion) [1]: 78.6 nM
Molecule: Y55A human colipase (natural protein)

More lines, now with the values behind:

Molecule: L16A human colipase (natural protein)
- apparent Kd (colipase at half-maximal absorption of PTL to tributyrin emulsion) [1]: 25.7 nM

Molecule: F84A human colipase (natural protein)
- apparent Kd (colipase at half-maximal absorption of PTL to tributyrin emulsion) [1]: 108 nM

B1: wild-type human colipase (natural protein, UniProt P04118 18-112, looked up)
chain: APGPRGIIINLENGELCMNSAQCKSNCCQHSSALGLARCTSMASENSECSVKTLYGIYYKCPCERGLTCEGDKTIVGSITNTNFGICHDAGRSKQ
- apparent Kd (colipase at half-maximal absorption of PTL to tributyrin emulsion) [2]: 22.8 nM

Source: publication PMC3642234 (Biochimica et biophysica acta, 2013)
